# Target: T1, HLA-A*03:01 (human)
# T1 construct: MHC class I monomer first loaded with a UV-sensitive peptide that is cleaved by UV irradiation and exchanged for the test peptide; captured on streptavidin plates; also called peptide-receptive MHC molecules
# Assay: UV-ligand exchange, anti-b2m ELISA; peptide exchange yield grade (>10% +, >20% ++, >50% +++, >75% ++++)
# Excerpt: Candidate peptides for T cell based therapies according to the present invention were further tested for their MHC binding capacity (affinity). The individual peptide-MHC complexes were produced by UV-ligand exchange, where a UV-sensitive peptide is cleaved upon UV-irradiation and exchanged with the peptide of interest as analyzed. Only peptide candidates that can effectively bind and stabilize the peptide-receptive MHC molecules prevent dissociation of the MHC complexes. To determine the yield of the exchange reaction, an ELISA was performed based on the detection of the light chain (β2m) of stabilized MHC complexes. The assay was performed as generally described in Rodenko et al. (Rodenko et al., 2006)
# 96 well MAXISorp plates (NUNC) were coated over night with 2 ug/ml streptavidin in PBS at room temperature, washed 4× and blocked forl h at 37° C. in 2% BSA containing blocking buffer. Refolded HLA-A*02:01/MLA-001 monomers served as standards, covering the range of 15-500 ng/ml. Peptide-MHC monomers of the UV-exchange reaction were diluted 100-fold in blocking buffer. Samples were incubated for 1 h at 37° C., washed four times, incubated with 2 ug/ml HRP conjugated anti-β2m for 1 h at 37° C., washed again and detected with TMB solution that is stopped with […]. Absorption was measured at 450 nm.
row,Binder,peptide exchange yield
1,RLYEMILQR,> 75%
2,RIYVYVKRK,50 to 75%
3,KLQAKVLQY,> 75%
4,SSLPRAFQK,20 to 50%
5,SVLDKLLFH,> 75%
6,AATIISSAK,10 to 20%
7,KIFQGQINK,> 75%
8,RLKMAQESVSK,> 75%
9,RLAVSTRGK,> 75%
10,RLYYSFKNITK,> 75%
11,KTGWFTLLY,> 75%
12,KINPTASLK,50 to 75%
13,KLSLSHKK,50 to 75%
14,GISNPITTSK,> 75%
15,VSLGTPIMK,50 to 75%
16,RLYDAYVNR,> 75%
17,RSKWSNVFK,> 75%
18,RSYSHVVLK,> 75%
19,RVAEEILIK,50 to 75%
20,KVLEPPLGAR,50 to 75%
21,RLFPGLYLGY,50 to 75%
22,EGLFLLGCVK,50 to 75%
23,GGLSSQGVYY,20 to 50%

row,Binder,peptide exchange yield
1,ALLGVIIAKK,> 75%
2,KILDRVLSRY,> 75%
3,VSYNRLIK,50 to 75%
4,RVWLGKHYK,> 75%
5,ALAAKLEVK,> 75%
6,KLYPTHACR,> 75%
7,ATNGKVLKK,> 75%
8,VAFIPLSNK,> 75%
9,KLFTSVFGVGLK,> 75%
10,RIVDYLLEK,> 75%
11,AVIGALLAVGATK,50 to 75%
12,RVYPRPPSK,> 75%
13,QICLPAIYK,> 75%
14,KIWQNLRLK,50 to 75%
15,KAFNQSSIFTK,50 to 75%
16,ALERKFRQK,> 75%
17,ALPRQAFHSK,> 75%
18,SLLEADPFLK,50 to 75%
19,IVYPSATDKTK,50 to 75%
20,RVYPRPPSKTY,> 75%
21,KMMKRLMTVEK,> 75%
22,KVYIPPIINK,> 75%
23,AVYNYPEGAAY,> 75%

row,Binder,peptide exchange yield
1,RVLPPLTRILK,> 75%
2,SLYDGFLSY,> 75%
3,VIGTTSSPK,50 to 75%
4,ATNGKVLKKR,> 75%
5,RSNPYFQNK,> 75%
6,KVFEEPEDFLK,20 to 50%
7,IVAFIPLSNK,> 75%
8,RVYEGDGRNSLK,50 to 75%
9,QVRDTLKIVFK,50 to 75%
10,SIINFKPLTY,50 to 75%
11,SSLAELIAK,20 to 50%
12,IVFPDVISK,> 75%
13,RVSSVKLISK,50 to 75%
14,AISSTVLGK,> 75%
15,KVADFGLARLLK,> 75%
16,KTCQVSGLLY,> 75%
17,KVMPKQTWK,50 to 75%
18,RTIDRSVFK,> 75%
19,ATIGLSVSK,> 75%
20,SLYNLGGAK,> 75%
21,LLPTVLIKK,50 to 75%

# Reference: US20200000897A1 (published 2020)
